This data set in a line: recombinant expression of point mutants. As to conditions: glycan lost; control: wild-type CD22 20-330.

In the case of CD22 (Siglec-2): N101A, the expression_or_secretion entry is on record as “decreases”.

For the origin of these results see article PMC5624926.
